# Measurements reported in article PMC12846830 (Proceedings of the National Academy of Sciences of the …, 2026).
# B1: EmrE, a multidrug transporter from Escherichia coli, with a tetracysteine tag (TC-Tag) (natural protein)
# chain: MNPYIYLGGAILAEVIGTTLMKFSEGFTRLWPSVGTIICYCASFWLLAQTLAYIPTGIAYAIWSGVGIVLISLLSWGFFGQRLDLPAIIGMMLICAGVLIINLLSRSTPH
# modifications: FlAsH dye covalently bound to the tetracysteine tag
# Biological target: the molecule itself
# Assay: single-molecule photobleaching step analysis
protein,measurement,value
B1,stoichiometry N,2
